Results taken from the supplement of paper PMC10567573.

B1: TMEM106C (parent)
chain: SEQLVNFTGKAEMGGPFSYVYFFC

Variants of: B1
Assay: protein stability index of a GFP-peptide fusion (GPS, HEK-293T) (PSI 1-6); higher = more stable
Settings: c terminus: a fixed tail appended
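Also: lentivirally expressed fusions sorted by FACS into six bins by GFP to DsRed ratio, PSI derived from sequencing read proportions per bin multiplied by bin number.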

Protein stability index of substitutions, site by site:
Y19: H 3.66; M 3.35; E 1.93; V 3.9; A 2; G 2.97; L 2.89; R 2.1; P 1.74; K 3.22; Q 2.12; F 2.11; N 1.97; I 2.51; T 2.33; W 2.46; C 2.1; D 1.91
F23: P 1.51; R 4.48; Q 2.9; Y 3.3; G 3.03; T 2.05; C 2.54; V 3.22; I 2.42; E 2.15; L 2.08; H 2.28; K 1.79; S 3.45; A 2.45; N 1.35; D 1.56; W 3.85
G14: Q 2.52; A 3.63; S 3.33; N 2.23; C 3.15; E 2.86; L 3; Y 3.75; W 3.4; V 3.73; I 3.83; K 2.59; M 2.79; T 3.09; D 3.46; R 2.42; F 3.25; H 2.88; P 3.48
G15: C 2.89; S 2.85; I 3.9; E 3.6; D 2.33; R 2.79; K 2.63; W 2.36; H 3.96; T 2.73; F 3.12; V 2.76; L 2.52; Q 2.59; N 2.23; Y 2.89; P 4.29; A 2.8; M 3.83
M13: T 2.27; E 1.54; R 2.54; S 2.16; L 2.2; A 2.1; H 2.64; Y 3.13; Q 2.02; C 2.52; D 3.13; V 3.14; F 2.15; P 2.52; G 2.77; I 3.54; N 2.69; K 2.34; W 2.15
F17: E 1.97; G 2.28; N 2.93; H 2.22; V 2.46; W 3.31; L 3.08; K 2.42; D 1.95; C 2.79; P 1.84; A 2.55; M 3.54; Q 2.77; R 3.07; Y 2.21; S 2.5; I 2.47; T 2.41
V20: N 2.69; F 2.17; Y 2.53; G 2.35; R 1.68; T 2.77; Q 2.65; L 2.07; H 2.53; D 1.76; W 1.79; E 2.13; S 2.56; K 1.55; A 2.9; M 2.65; P 1.98; I 2.7; C 3.09
P16: V 2.47; F 3.14; I 2.04; G 2.05; H 2.25; S 2.1; E 2.88; L 3.79; D 3.16; Y 3.76; C 3.95; W 2.94; Q 2.58; R 3.05; K 2.98; T 2.4; A 2.25; M 3.03; N 3.26
C24: A 3.11; K 2.07; D 2.36; S 2.23; V 3.49; N 1.89; H 3.25; P 1.73; Y 3.05; T 3.96; E 2.29; Q 1.54; I 3.26; G 2.53; W 3.35; M 2.82; F 3.13; R 2.09
E12: Q 4.32; S 2.79; V 2.79; R 3.52; N 2.69; Y 3.17; L 2.07; T 2.51; M 3.74; W 3.46; P 3.12
S18: P 2.26; H 2.35; E 2.23; L 3.3; G 1.88; K 2.25; M 4.17; N 3; V 4.08; Q 2.45; T 2.31; A 2.29; R 3.37; I 3.11; C 2.74; Y 2.04; F 3.04; W 1.72
Y21: C 2.42; D 1.89; E 1.42; L 3.93; G 1.84; F 3.1; S 2.44; R 1.49; Q 2.15; A 3.06; K 2.06; P 1.49; V 3.6; T 3.31; H 2.26; M 3.64; N 2.82
F22: V 3.27; Y 2.78; T 3.71; Q 2.07; N 1.79; S 2.12; I 1.96; R 2.28; C 2.58; D 2.33; G 2.86; H 3.04; P 2.06; M 3.04; K 1.84; A 2.62; E 1.88; W 2.21
